Numbering of substitutions follows the chain as printed. In names and notes the source's numbering stands.
How the values were obtained:
[1] = Total turnovers of β-MeTrp formation from L-threonine and indole; type: biochemical; conditions: for Turnovers: 1 μM purified enzyme, 20 mM each L-threonine and indole, 24 h at 75° C.; for turnovers (TTN) of β-MeTrp production: purified enzyme, 24 hours
Experimental: Total Turnover Number (TTN) determination. Measurements were made using HPLC and LC-MS instruments. The amount of Trp formed was measured at 280 nm using a standard curve with trichlorobenzene as internal standard. […] This same technique was used to determine the TTN of the PfTrpB^2B9 reaction with different nucleophiles. […] […] Before addition of enzyme, all reagents were transferred into a Coy anaerobic chamber with <1 ppm O2 to rapidly exchange the atmosphere in the headspace of the vials to 95/5% N2/H2, which limits competing non-catalytic oxidation of indoles. Enzyme was added in the anaerobic environment with varied catalyst loading to ensure a robust product signal in subsequent analysis. Reaction vessels were capped before being removed from the anaerobic chamber and incubated in a 75° C. water bath for 24 hours. Reactions were quenched the next day by addition of 1 volume (150 μL) of 100% ACN, mixing, and allowing to rest at room temperature for 10 min. Quenched solutions were then diluted 5-fold with 40% ACN in water and analyzed via LC-MS.
To identify the best parent enzyme for optimization, we first measured production of β-MeTrp using purified enzymes from each generation in the evolution if PfTrpB^0B2.

PfTrpA [2] = molecular target: T1, PfTrpA (Pyrococcus furiosus, UniProt Q8U094); type: biochemical; conditions: percent of its own activity
T1 construct: made in house; host or cells: E. coli BL21 E. cloni EXPRESS
T1 sequence (Q8U094 whole entry, looked up): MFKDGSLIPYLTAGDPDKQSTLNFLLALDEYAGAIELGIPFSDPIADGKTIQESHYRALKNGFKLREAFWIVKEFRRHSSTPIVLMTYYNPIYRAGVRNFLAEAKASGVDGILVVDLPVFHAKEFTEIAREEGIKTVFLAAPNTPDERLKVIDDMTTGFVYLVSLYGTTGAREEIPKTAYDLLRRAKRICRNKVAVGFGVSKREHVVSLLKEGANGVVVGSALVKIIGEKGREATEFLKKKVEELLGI

PfTrpA [3] = type: biochemical, Pyrococcus furiosus
[4] = Substrate selectivity: relative rate of NCAA production with L-serine and indole analogs (UHPLC-MS); type: biochemical
Experimental: engineered TrpB enzymes. (A) Indole analogs that have been reported to react with StTrpS were tested for reactivity with the PfTrpB, PfTrpS, and PfTrpB^0B2 enzymes. The nucleophilic atom is indicated with a gray circle. (B) Relative activities of enzyme complex PfTrpS (black) and PfTrpB^0B2 (gray) compared with PfTrpB. Reactions performed in duplicate with 20 mM of each substrate and varying enzyme concentrations to ensure incomplete conversion after 1 h. Products were later confirmed in scaled-up reactions using PfTrpB^0B2.
Substrate Selectivity. The relative rate of NCAA production was measured using 20 mM L-serine and 20 mM indole analog (FIG. 4A) in 200 mM potassium phosphate (pH 8.0) with 5% (vol/vol) DMSO. Reactions were incubated at 75° C. for 1 h, quenched, and the relative rate of production formation was measured by comparing the ratio of the product peaks measured via ultra HPLC-MS (UHPLC-MS) Agilent 1290 with 6140 MS detector at 280 nm and then normalizing for the enzyme concentration.

[5] = Kinetics of tryptophan formation monitored at 290 nm (continuous assay for Trp production); type: biochemical
Experimental: Kinetics and UV-Vis Spectroscopy. Data were collected between 550 and 250 nm on a UV1800 Shimadzu spectrophotometer (Shimadzu) using 0.25-20 μM of enzyme in 200 mM potassium phosphate (pH 8.0) in a quartz cuvette. Samples were incubated at 75° C. for >3 min to ensure a stable temperature was reached. PfTrpB activity (kcat) was measured by monitoring tryptophan formation at 290 nm using Δe290=1.89 mM^−1·cm^−1.
Purified protein concentrations were determined via the Bradford assay (Bio-Rad). The concentration of PfTrpB^2B9 in heat treated lysates was determined by specific activity. Tryptophan formation was monitored at 75° C. over 1 min at 290 nm using Δε290=1.89 mM^−1 cm^−1·^2 The assay buffer contained 200 mM potassium phosphate pH 8, and 5 μM PLP. Using purified PfTrpB^2B9, we recorded an activity of 0.9 s^−1 with 400 μM Ind and 20 mM Ser. Using this parameter, 375 mg L^−1 of PfTrpB^2B9 active catalyst were prepared as a heat-treated lysate.

[6] = Thermostability T50 (temperature of half-maximal activity after incubation for 1 h); type: physicochemical; conditions: for T50: temperature of half-maximal activity after incubation for 1 h
[7] = Rescreen of library hits for β-MeTrp formation (heat-treated lysate, HPLC); type: biochemical; conditions: random mutagenesis library, parent PfTrpB^4D11, 60 min reaction at 75° C.
Experimental: High-throughput screening. For high-throughput expression, BL21 E. cloni Express cells carrying PfTrpB^4D11 and variant plasmids were grown in 96-well deep well plates in 300 μL TBamp at 37° C. and 80% humidity with shaking at 250 rpm overnight. TBamp expression cultures (630 μL) were inoculated with 20 μL of the overnight cultures and continued to grow at 37° C. and 80% humidity with shaking at 250 rpm for 3 h. Expression was induced with the addition of ITPG to a final concentration of 1 mM to pre-chilled (20 min on ice-water bath) cultures. The expression continued for another 20 h at 20° C. with shaking at 250 rpm. Cells were then centrifuged at 4000 g for 10 min and frozen at −20° C. over night. […] The reactions were then arrested by incubation in an ice-water bath, and the amount of β-MeTrp formed was recorded at 290 nm with a plate reader (Tecan Infinite M200).
Cultures of each hit containing missense mutations were grown in triplicate on 5 mL scale and expression and lysis proceeded in the same manner as described in the Cloning, Expression and Purification section above. Reactions using 10 μM protein as heat-treated lysate (determined by Bradford assay) and 20 mM each substrate were run for 1 h at 75° C. and quenched by dilution to 50% ACN.

PfTrpA [8] = molecular target: T2, PfTrpA (Pyrococcus furiosus, UniProt Q8U094); type: biochemical; conditions: Table 1, values for PfTrpB reported here
T2 construct: made in house; host or cells: E. coli BL21 E. cloni EXPRESS
T2 sequence (Q8U094 1-248): T1 sequence (Q8U094 whole entry, looked up)
T2 sequence (Q8U093 1-388 partner): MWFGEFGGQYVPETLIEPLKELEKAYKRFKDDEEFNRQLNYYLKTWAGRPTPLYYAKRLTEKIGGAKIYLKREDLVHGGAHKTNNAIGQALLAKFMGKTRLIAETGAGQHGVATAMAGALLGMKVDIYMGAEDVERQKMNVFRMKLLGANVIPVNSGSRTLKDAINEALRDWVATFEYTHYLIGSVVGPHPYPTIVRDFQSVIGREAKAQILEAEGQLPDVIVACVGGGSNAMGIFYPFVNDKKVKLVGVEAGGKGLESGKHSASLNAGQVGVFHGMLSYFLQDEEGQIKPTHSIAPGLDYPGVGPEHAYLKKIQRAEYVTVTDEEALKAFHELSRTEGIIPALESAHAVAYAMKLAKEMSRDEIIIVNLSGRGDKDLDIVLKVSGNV

[9] = Table 1, published values; cited from earlier work

B1: PfTrpB^0B2: PfTrpB with mutations P12L, E17G, I68V, F274S, T292S, T321A (protein)
chain: MWFGEFGGQYVLETLIGPLKELEKAYKRFKDDEEFNRQLNYYLKTWAGRPTPLYYAKRLTEKIGGAKVYLKREDLVHGGAHKTNNAIGQALLAKFMGKTRLIAETGAGQHGVATAMAGALLGMKVDIYMGAEDVERQKMNVFRMKLLGANVIPVNSGSRTLKDAINEALRDWVATFEYTHYLIGSVVGPHPYPTIVRDFQSVIGREAKAQILEAEGQLPDVIVACVGGGSNAMGIFYPFVNDKKVKLVGVEAGGKGLESGKHSASLNAGQVGVSHGMLSYFLQDEEGQIKPSHSIAPGLDYPGVGPEHAYLKKIQRAEYVAVTDEEALKAFHELSRTEGIIPALESAHAVAYAMKLAKEMSRDEIIIVNLSGRGDKDLDIVLKVSGNVLEHHHHHH
modifications: left off: small tags and cut ends
notes: PfTrpB with mutations P12L, E17G, I68V, F274S, T292S, T321A
Turnovers [1]: 180
activity when PfTrpA was added (PfTrpA [2]): 4%
kcat change with TrpA (PfTrpA [3]): 0.04
activity relative to PfTrpB on the substrate panel ([4]; all nucleophiles tested): substantial increase in activity
rate relative to PfTrpS ([4]; indazole (5)): three
rate relative to PfTrpS ([4]; indoline (6)): approximately six
kcat higher than PfTrpS [5]: threefold
T50 [6]: 87 °C

B2: PfTrpB^4D11: PfTrpB with mutations E17G, I68V, F274S, T292S, T321A (protein)
chain: B1 chain with L12P
modifications: left off: small tags and cut ends
notes: PfTrpB with mutations E17G, I68V, F274S, T292S, T321A
Turnovers [1]: 660
turnovers (TTN) of β-MeTrp production [1]: ~420
kcat change with TrpA (PfTrpA [3]): 0.3
Fold Improvement (increase in β-MeTrp formation relative to parent) [7]: 1.0 (parent)
T50 [6]: 84 °C

B3: PfTrpB^2G9: PfTrpB with mutation T292S (protein)
chain: B1 chain with L12P, G17E, V68I, S274F, A321T
modifications: left off: small tags and cut ends
notes: PfTrpB with mutation T292S
enhancement of β-MeTrp activity relative to wild-type PfTrpB [1]: approximately 6 fold
Turnovers [1]: 420
kcat change with TrpA (PfTrpA [3]): 0.34
T50 [6]: 95 °C

B4: PfTrpB: wild-type β-subunit of tryptophan synthase from Pyrococcus furiosus, SEQ ID NO:2 (protein, listed as Pyrococcus furiosus)
chain: B1 chain with L12P, G17E, V68I, S274F, S292T, A321T
Turnovers [1]: 66
turnovers (TTN) of β-MeTrp production [1]: 66
kcat change with TrpA (PfTrpA [8]): 3.2
kcat change with TrpA (PfTrpA [3]): 3.2
Thermal stability indicators: T50 ([6]; Table 1): 94.7 ± 1.2
T50 [6]: 95 °C

B5: TmTrpB^WT: wild-type TrpB from Thermotoga maritima, SEQ ID NO:6 (protein, listed as Thermotoga maritima)
chain: MKGYFGPYGGQYVPEILMPALEELEAAYEEIMKDESFWKEFNDLLRDYAGRPTPLYFARRLSEKYGARIYLKREDLLHTGAHKINNAIGQVLLAKKMGKTRIIAETGAGQHGVATATAAALFGMECVIYMGEEDTIRQKPNVERMKLLGAKVVPVKSGSRTLKDAINEALRDWITNLQTTYYVIGSVVGPHPYPIIVRNFQKVIGEETKKQILEKEGRLPDYIVACVGGGSNAAGIFYPFIDSGVKLIGVEAGGEGLETGKHAASLLKGKIGYLHGSKTFVLQDDWGQVQVTHSVSAGLDYSGVGPEHAYWRETGKVLYDAVTDEEALDAFIELSRLEGIIPALESSHALAYLKKINIKGKVVVVNLSGRGDKDLESVLNHPYVRERIRLEHHHHHH
kcat change with TrpA [9]: 2.4
